The source of these data is patent US20260028402A1 (published 2026).

Read-outs that look alike come from different tables or passages of the source.

For assay [1], the target named is T1, full-length human CD100 protein HuCD100 on cells (human, UniProt Q92854 22-862). The assay is described as follows: FACS; Jurkat cells.
The target in assay [2] is CynoCD100-HEK293 (cynomolgus monkey). As to the kind of experiment: FACS.
The target of assay [3] is T1, full-length human CD100 protein HuCD100 …. The assay is described as follows: FACS; HuPBMC cells.
In assay [4] the target is CynoCD100-HEK293 (cynomolgus monkey). As to the kind of experiment: FACS. The source holds these as a separate data set.
Another assay has as its target CynoCD100-His (cynomolgus monkey). The assay is described as follows: ELISA; FIG. 5F.
For assay [5], the target named is T2, full-length mouse CD100 protein MusCD100 on cells (mouse, UniProt O09126 24-861).
T2 chain: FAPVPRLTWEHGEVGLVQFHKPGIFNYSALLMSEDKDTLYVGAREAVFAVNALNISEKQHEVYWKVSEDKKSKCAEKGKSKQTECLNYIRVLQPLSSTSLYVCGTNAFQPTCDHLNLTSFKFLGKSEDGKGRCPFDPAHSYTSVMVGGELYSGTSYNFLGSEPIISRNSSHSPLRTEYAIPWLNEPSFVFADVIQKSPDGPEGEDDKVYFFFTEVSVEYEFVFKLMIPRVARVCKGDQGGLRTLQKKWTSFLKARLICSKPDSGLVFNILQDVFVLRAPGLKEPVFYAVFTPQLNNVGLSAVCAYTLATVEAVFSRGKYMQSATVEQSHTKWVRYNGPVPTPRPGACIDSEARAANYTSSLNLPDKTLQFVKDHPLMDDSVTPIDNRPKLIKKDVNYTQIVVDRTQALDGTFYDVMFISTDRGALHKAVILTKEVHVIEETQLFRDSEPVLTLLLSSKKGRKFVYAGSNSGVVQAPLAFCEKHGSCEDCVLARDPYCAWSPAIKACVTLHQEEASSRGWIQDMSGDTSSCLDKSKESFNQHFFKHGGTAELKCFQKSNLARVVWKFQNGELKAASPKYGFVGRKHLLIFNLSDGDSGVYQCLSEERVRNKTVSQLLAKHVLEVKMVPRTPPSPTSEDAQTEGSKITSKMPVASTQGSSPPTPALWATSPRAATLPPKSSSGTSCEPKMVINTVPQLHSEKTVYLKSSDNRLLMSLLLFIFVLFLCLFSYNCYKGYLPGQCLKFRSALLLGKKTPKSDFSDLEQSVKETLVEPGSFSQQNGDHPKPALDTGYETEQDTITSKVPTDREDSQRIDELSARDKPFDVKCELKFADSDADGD
As to the kind of experiment: FACS.

Assay [6] addresses T3, HuCD100-His (human, UniProt Q92854 22-734). The assay is described as follows: ELISA; FIG. 5A.
Assay [7] deals with CynoCD100-HEK293 (cynomolgus monkey). As to the kind of experiment: FACS. The source holds these as a separate data set.
Assay [8] concerns the target T3, HuCD100-His. The assay is described as follows: ELISA.
Assay [9] deals with T4, MusCD100-Fc (mouse, UniProt O09126 24-733, biotinylated in the Plexin binding and blocking assays (sites not given)).
T4 chain: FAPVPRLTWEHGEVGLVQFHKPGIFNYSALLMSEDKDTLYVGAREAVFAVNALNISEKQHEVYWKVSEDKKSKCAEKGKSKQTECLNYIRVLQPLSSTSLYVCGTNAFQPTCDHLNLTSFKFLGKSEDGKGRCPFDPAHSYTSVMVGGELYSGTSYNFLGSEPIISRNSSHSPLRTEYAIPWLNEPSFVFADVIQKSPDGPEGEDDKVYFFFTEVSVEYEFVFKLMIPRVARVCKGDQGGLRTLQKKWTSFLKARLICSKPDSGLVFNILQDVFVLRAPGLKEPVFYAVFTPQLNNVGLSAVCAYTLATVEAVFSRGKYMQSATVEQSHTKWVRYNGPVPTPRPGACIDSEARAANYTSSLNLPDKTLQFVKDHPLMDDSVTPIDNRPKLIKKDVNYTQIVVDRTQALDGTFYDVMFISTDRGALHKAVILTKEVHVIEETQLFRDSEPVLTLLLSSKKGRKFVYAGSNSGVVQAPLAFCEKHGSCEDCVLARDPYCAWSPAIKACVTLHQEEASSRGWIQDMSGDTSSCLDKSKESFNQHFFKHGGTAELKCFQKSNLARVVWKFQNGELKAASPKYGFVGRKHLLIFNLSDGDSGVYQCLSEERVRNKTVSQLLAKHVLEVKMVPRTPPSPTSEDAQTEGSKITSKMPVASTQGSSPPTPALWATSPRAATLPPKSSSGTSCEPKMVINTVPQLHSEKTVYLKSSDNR
The assay is described as follows: ELISA.

The target in a further assay is T5, MusCD100-His (mouse, UniProt O09126 24-733).
T5 chain: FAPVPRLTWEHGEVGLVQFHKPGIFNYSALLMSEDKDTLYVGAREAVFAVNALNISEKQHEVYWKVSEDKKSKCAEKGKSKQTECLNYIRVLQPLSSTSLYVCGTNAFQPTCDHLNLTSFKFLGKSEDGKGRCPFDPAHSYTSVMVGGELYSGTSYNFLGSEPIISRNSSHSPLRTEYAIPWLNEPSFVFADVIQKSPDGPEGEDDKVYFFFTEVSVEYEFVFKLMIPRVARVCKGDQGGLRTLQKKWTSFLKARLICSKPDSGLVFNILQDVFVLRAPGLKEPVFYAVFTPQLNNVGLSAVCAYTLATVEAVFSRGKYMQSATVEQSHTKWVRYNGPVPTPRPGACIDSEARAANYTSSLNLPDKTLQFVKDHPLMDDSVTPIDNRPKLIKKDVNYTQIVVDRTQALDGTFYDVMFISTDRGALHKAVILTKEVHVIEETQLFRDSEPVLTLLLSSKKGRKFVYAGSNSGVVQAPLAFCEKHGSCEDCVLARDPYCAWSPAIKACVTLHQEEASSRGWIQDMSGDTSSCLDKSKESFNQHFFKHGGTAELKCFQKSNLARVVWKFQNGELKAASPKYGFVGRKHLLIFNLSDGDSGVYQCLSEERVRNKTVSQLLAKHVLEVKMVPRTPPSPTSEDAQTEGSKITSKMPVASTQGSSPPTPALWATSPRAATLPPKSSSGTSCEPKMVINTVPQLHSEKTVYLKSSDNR
The assay is described as follows: ELISA.

Assay [10] concerns the target HuCD100-Fc (in-house prepared) (human, UniProt Q92854 22-734, biotinylated in the Plexin binding and blocking assays (sites not given)). The assay is described as follows: FACS blocking; FIG. 8B, blocking of binding to HuPlexin-B2-HEK293.
Assay [11] concerns the target T1, full-length human CD100 protein HuCD100 …. The assay is described as follows: FACS.
Assay [12] addresses T4, MusCD100-Fc. As to the kind of experiment: FACS blocking; MusPlexin-B1-HEK293, FIG. 12F.
Assay [13] has as its target T2, full-length mouse CD100 protein …. As to the kind of experiment: FACS.

B1: Pepinemab (antibody, V domains shown)
VH: QVQLVQSGAEVKKPGSSVKVSCKASGYSFSDYYMHWVRQAPGQGLEWMGQINPTTGGASYNQKFKGKATITVDKSTSTAYMELSSLRSEDTAVYYCARYYYGRHFDVWGQGTTVTVSS
VL: DIVMTQSPDSLAVSLGERATINCKASQSVDYDGDSYMNWYQQKPGQPPKLLIYAASNLESGVPDRFSGSGSGTDFTLTISSLQAEDVAVYYCQQSNEDPYTFGQGTKLEIK
B1: the EC50 in assay [1] amounted to 0.275 nM; with CynoCD100-HEK293 [2], 0.132 nM; in assay [3], 0.412 nM; in the assay with CynoCD100-HEK293 [4] it was 0.271 nM; in the assay with CynoCD100-His, 0.0993 nM; in assay [5] it was 0.274 nM. Also, the EC50 with HuCD100-His [6] was 0.0383 nM; in the assay with CynoCD100-HEK293 [7], 0.365 nM; with HuCD100-His [8], 0.0804 µg/mL; with MusCD100-Fc [9] it was 0.136 µg/mL; with MusCD100-His, 0.174 µg/mL; in [11], 0.608 nM. The EC50 in assay [13] is 0.276 nM. For the same molecule, the IC50 was determined as 0.766 nM in assay [10] and 5.44 nM with MusCD100-Fc [12].
